This is an account of results in PMC10202959, “A superior extracellular matrix binding motif to enhance the regenerative activity and safety of therapeutic proteins” (NPJ Regenerative Medicine, 2023).

B2: human fibrinogen (complex)
chain 1: ADSGEGDFLAEGGGVRGPRVVERHQSACKDSDWPFCSDEDWNYKCPSGCRMKGLIDEVNQDFTNRINKLKNSLFEYQKNNKDSHSLTTNIMEILRGDFSSANNRDNTYNRVSEDLRSRIEVLKRKVIEKVQHIQLLQKNVRAQLVDMKRLEVDIDIKIRSCRGSCSRALAREVDLKDYEDQQKQLEQVIAKDLLPSRDRQHLPLIKMKPVPDLVPGNFKSQLQKVPPEWKALTDMPQMRMELERPGGNEITRGGSTSYGTGSETESPRNPSSAGSWNSGSSGPGSTGNRNPGSSGTGGTATWKPGSSGPGSTGSWNSGSSGTGSTGNQNPGSPRPGSTGTWNPGSSERGSAGHWTSESSVSGSTGQWHSESGSFRPDSPGSGNARPNNPDWGTFEEVSGNVSPGTRREYHTEKLVTSKGDKELRTGKEKVTSGSTTTTRRSCSKTVTKTVIGPDGHKEVTKEVVTSEDGSDCPEAMDLGTLSGIGTLDGFRHRHPDEAAFFDTASTGKTFPGFFSPMLGEFVSETESRGSESGIFTNTKESSSHHPGIAEFPSRGKSSSYSKQFTSSTSYNRGDSTFESKSYKMADEAGSEADHEGTHSTKRGHAKSRPV
chain 2: QGVNDNEEGFFSARGHRPLDKKREEAPSLRPAPPPISGGGYRARPAKAAATQKKVERKAPDAGGCLHADPDLGVLCPTGCQLQEALLQQERPIRNSVDELNNNVEAVSQTSSSSFQYMYLLKDLWQKRQKQVKDNENVVNEYSSELEKHQLYIDETVNSNIPTNLRVLRSILENLRSKIQKLESDVSAQMEYCRTPCTVSCNIPVVSGKECEEIIRKGGETSEMYLIQPDSSVKPYRVYCDMNTENGGWTVIQNRQDGSVDFGRKWDPYKQGFGNVATNTDGKNYCGLPGEYWLGNDKISQLTRMGPTELLIEMEDWKGDKVKAHYGGFTVQNEANKYQISVNKYRGTAGNALMDGASQLMGENRTMTIHNGMFFSTYDRDNDGWLTSDPRKQCSKEDGGGWWYNRCHAANPNGRYYWGGQYTWDMAKHGTDDGVVWMNWKGSWYSMRKMSMKIRPFFPQQ
chain 3: YVATRDNCCILDERFGSYCPTTCGIADFLSTYQTKVDKDLQSLEDILHQVENKTSEVKQLIKAIQLTYNPDESSKPNMIDAATLKSRKMLEEIMKYEASILTHDSSIRYLQEIYNSNNQKIVNLKEKVAQLEAQCQEPCKDTVQIHDITGKDCQDIANKGAKQSGLYFIKPLKANQQFLVYCEIDGSGNGWTVFQKRLDGSVDFKKNWIQYKEGFGHLSPTGTTEFWLGNEKIHLISTQSAIPYALRVELEDWNGRTSTADYAMFKVGPEADKYRLTYAYFAGGDAGDAFDGFDFGDDPSDKFFTSHNGMQFSTWDNDNDKFEGNCAEQDGSGWWMNKCHAGHLNGVYYQGGTYSKASTPNGYDNGIIWATWKTRWYSMKKTTMKIIPFNRLTIGEGQQHHLGGAKQAGDV
modifications: Plasma-derived disulfide-linked hexamer (alpha-beta-gamma)2, fibrinopeptides A and B retained, N-glycosylated. Isoforms are not printed: the major plasma forms are taken by convention, i.e. the …

Common to all, as to settings: both partners purified
The target in experiment [1] is human plasma fibronectin (human). Put plainly: ELISA; plates coated with 100 nM PlGF-2, AREG or NRTN (1 h, 37 °C), blocked with 1% BSA in PBS-T; ECM proteins at increasing concentration in PBS-T with 0.1% BSA; bound ECM protein detected with HRP-conjugated antibodies; one site specific binding model; n = 3.
Experiment [2] deals with T1, human vitronectin (human, UniProt P04004 20-478).
T1 construct: vitronectin, human; source: bought: Peprotech
Described as above.

Experiment [3] deals with B2. The description is as above.
Experiment [4] deals with T2, human tenascin C (human, UniProt P24821 23-2201).
T2 construct: tenascin C, human; also called Tenacin C; source: bought: R&D Systems
The experiment is described as above.

Experiment [5] concerns the target T3, AREG26-38/IL-1Ra (human | ).
T3 construct: interleukin-1 receptor antagonist protein; Both the His tag and AREG26-38 are said to stand at the N-terminus; also called AREG126-138/IL-1Ra; engineered IL-1Ra; source: E. coli BL21 (DE3), pET-22b, soluble fraction, purified (Ni column)
Put plainly: ELISA; plates coated with 100 nM ECM protein in PBS (1 h, 37 °C), blocked with 1% BSA in PBS-T; PDGF-BB or IL-1Ra variants at increasing concentrations in PBS-T with 0.1% BSA, 1 h at room temperature; detected with biotinylated antibodies; one site specific binding model; n = 3. A general note: ELISA stands for enzyme-linked immunosorbent assay.

Experiment [6] addresses T4, AREG26-38/PDGF-BB (human | ).
T4 construct: platelet-derived growth factor subunit B; AREG26-38 at the N-terminus of PDGF-B; also called AREG126-138/PDGF-BB; engineered PDGF-BB
Described as above.

Experiment [7] deals with human plasma fibronectin (human). The experiment is described as above.
For experiment [8], the target named is T1, human vitronectin. The description is as above.
For experiment [9], the target named is B2. The description is as above.
Target sequence in this assay (P02671 36-866): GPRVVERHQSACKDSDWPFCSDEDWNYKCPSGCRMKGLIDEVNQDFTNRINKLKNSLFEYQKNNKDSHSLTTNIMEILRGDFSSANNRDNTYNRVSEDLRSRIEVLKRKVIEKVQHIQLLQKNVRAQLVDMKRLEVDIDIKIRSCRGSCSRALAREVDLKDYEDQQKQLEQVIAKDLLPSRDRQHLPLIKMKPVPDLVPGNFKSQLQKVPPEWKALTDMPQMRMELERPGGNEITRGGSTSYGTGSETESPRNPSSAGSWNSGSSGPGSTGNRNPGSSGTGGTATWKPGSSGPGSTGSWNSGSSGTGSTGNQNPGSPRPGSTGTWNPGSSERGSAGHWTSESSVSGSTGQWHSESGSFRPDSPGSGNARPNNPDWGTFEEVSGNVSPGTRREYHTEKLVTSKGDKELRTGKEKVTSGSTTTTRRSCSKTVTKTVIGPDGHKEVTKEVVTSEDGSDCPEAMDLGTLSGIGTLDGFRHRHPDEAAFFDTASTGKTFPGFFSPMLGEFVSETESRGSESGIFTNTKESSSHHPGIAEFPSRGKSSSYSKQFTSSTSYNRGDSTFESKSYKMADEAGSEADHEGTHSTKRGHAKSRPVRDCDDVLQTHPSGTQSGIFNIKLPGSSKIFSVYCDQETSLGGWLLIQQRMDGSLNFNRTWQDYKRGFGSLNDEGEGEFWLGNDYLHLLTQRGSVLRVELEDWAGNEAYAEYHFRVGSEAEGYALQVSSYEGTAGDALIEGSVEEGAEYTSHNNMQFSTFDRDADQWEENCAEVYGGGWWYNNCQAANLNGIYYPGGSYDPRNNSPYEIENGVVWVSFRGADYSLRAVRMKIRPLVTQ
The target in experiment [10] is T2, human tenascin C. The experiment is described as above.

T1 sequence (P04004 20-478): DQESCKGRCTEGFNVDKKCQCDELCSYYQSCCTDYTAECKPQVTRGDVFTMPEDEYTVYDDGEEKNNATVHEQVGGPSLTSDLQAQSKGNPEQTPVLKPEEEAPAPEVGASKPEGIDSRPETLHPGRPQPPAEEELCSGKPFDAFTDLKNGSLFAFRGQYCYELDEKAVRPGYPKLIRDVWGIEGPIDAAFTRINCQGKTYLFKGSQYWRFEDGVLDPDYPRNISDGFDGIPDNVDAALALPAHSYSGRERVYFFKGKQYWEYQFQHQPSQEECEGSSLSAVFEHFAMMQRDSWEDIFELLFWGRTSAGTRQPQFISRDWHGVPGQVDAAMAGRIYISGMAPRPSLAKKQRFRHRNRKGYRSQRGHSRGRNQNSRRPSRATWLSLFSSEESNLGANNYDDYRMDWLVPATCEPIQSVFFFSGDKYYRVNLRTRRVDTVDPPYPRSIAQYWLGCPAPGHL
T2 sequence (P24821 23-2201): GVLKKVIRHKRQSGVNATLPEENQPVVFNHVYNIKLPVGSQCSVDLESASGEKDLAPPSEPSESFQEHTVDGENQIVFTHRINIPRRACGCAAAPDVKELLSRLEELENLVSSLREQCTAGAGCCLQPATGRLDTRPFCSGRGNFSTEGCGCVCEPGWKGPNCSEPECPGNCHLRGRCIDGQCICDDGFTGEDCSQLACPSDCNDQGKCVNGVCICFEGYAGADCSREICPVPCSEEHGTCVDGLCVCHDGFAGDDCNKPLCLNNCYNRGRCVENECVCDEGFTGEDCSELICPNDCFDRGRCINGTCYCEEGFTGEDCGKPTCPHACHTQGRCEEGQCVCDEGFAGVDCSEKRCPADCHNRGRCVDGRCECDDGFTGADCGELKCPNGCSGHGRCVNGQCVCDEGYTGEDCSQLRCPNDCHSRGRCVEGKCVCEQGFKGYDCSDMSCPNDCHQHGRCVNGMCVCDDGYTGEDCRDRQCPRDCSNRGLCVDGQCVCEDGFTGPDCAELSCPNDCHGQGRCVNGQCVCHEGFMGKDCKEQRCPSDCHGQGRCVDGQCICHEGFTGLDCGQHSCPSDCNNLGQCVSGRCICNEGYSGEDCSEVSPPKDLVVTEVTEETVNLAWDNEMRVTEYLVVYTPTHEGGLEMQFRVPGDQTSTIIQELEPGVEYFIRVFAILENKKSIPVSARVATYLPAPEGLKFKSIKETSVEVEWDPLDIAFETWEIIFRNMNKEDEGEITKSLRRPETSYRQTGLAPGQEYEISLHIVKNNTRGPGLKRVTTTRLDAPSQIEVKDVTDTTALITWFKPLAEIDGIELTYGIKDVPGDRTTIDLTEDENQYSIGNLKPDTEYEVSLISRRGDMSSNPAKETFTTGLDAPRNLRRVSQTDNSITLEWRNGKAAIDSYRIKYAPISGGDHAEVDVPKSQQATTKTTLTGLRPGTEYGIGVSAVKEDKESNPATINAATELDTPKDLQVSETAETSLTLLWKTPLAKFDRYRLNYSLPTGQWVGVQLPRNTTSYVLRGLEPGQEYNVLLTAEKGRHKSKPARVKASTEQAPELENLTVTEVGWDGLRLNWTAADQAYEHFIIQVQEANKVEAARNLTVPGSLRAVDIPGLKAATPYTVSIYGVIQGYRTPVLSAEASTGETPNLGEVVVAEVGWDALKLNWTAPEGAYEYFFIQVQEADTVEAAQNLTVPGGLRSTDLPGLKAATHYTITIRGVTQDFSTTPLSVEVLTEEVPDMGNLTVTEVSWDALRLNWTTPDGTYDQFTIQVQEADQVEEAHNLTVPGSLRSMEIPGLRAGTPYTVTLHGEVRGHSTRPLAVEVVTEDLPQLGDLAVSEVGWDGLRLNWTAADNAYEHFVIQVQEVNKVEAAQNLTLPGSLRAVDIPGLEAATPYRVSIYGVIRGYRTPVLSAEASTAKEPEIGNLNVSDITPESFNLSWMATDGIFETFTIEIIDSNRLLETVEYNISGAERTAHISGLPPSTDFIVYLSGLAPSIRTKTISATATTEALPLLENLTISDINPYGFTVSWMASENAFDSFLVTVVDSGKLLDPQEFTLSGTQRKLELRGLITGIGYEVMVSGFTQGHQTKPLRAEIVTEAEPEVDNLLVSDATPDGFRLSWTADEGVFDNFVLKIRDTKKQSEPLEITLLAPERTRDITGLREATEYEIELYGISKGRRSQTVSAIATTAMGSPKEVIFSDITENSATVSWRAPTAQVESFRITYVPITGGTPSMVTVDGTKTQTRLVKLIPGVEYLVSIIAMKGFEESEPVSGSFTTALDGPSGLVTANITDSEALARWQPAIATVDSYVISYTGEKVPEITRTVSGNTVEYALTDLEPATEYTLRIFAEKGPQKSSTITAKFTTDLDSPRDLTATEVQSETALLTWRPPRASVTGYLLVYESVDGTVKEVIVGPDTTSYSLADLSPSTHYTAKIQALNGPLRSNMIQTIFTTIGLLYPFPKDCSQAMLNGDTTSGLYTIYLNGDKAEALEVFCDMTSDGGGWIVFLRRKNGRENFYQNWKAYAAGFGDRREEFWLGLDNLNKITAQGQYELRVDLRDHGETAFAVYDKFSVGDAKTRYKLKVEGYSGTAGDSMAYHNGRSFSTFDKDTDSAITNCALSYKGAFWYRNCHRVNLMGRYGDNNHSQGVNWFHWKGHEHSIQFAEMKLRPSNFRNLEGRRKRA
T4 sequence (P02671 36-866): as the sequence (P02671 36-866) above
T3 sequence (P02671 36-866): as above

B1: amphiregulin (natural protein, human, UniProt P15514 101-187, looked up)
chain: SVRVEQVVKPPQNKTESENTSDKPKRKKKGGKNGKNRRNRKKKNPCNAEFQNFCIHGECKYIEHLEAVTCKCQQEYFGERCGEKSMK
notes: amphiregulin; it is a soluble form, not the 252 aa precursor (surmise); also called AREG; source: bought: Peprotech (carrier-free recombinant)
As for B1, the Kd (usually a measure of binding affinity in units of concentration) in experiment [1] came to 8.9 nM; in [2], 9.3 nM; in experiment [3] it was 7.4 nM; in experiment [4], 11 nM.

On to B2, for which the Kd is 16.9 nM in experiment [5] and 13.9 nM in experiment [6].

B3: interleukin-1 receptor antagonist (wild type) (natural protein, UniProt P25085 27-178, looked up)
chain: RPSGKRPCKMQAFRIWDTNQKTFYLRNNQLIAGYLQGPNIKLEEKIDMVPIDLHSVFLGIHGGKLCLSCAKSGDDIKLQLEEVNITDLSKNKEEDKRFTFIRSEKGPTTSFESAACPGWFLCTTLEADRPVSLTNTPEEPLIVTKFYFQEDQ
notes: interleukin-1 receptor antagonist protein; also called IL-1Ra; source: bought: Peprotech
As to B3, the Kd came to 153 nM in [7], 96.5 nM in experiment [8], 640 nM in [9] and 137 nM in experiment [10].

B4: placenta growth factor-2 (natural protein, human, UniProt P49763-3 19-170, looked up)
chain: LPAVPPQQWALSAGNGSSEVEVVPFQEVWGRSYCRALERLVDVVSEYPSEVEHMFSPSCVSLLRCTGCCGDENLHCVPVETANVTMQLLKIRSGDRPSYVELTFSQHVRCECRPLREKMKPERRRPKGRGKRRREKQRPTDCHLCGDAVPRR
notes: placenta growth factor, PlGF-2; also called PlGF; PlGF-2; source: bought: Peprotech (carrier-free recombinant)
On to B4, for which the Kd in experiment [1] is 17.2 nM; in experiment [2], 13.2 nM; in experiment [3] it was 14.1 nM; in experiment [4], 79.4 nM.

B5: platelet-derived growth factor-BB (wild type) (natural protein, UniProt P31240 82-190, looked up)
chain: SLGSLAAAEPAVIAECKTRTEVFQISRNLIDRTNANFLVWPPCVEVQRCSGCCNNRNVQCRASQVQMRPVQVRKIEIVRKKPIFKKATVTLEDHLACKCETIVTPRPVT
notes: platelet-derived growth factor subunit B; also called PDGF-BB; source: bought: Peprotech
For B5, the Kd amounted to 74.2 nM in experiment [7], 29.7 nM in experiment [8], 210 nM in experiment [9] and 87.8 nM in [10].

B6: neurturin (natural protein, human, UniProt Q99748 96-197, looked up)
chain: ARLGARPCGLRELEVRVSELGLGYASDETVLFRYCAGACEAAARVYDLGLRRLRQRRRLRRERVRAQPCCRPTAYEDEVSFLDAHSRYHTVHELSARECACV
notes: neurturin; also called NRTN; source: bought: Peprotech (carrier-free recombinant)
As to B6, the Kd in experiment [1] was 79.4 nM; in [2], 53.1 nM; in [3] it was 390 nM; in experiment [4] it was 55.7 nM.
